Test results published in US20230035235A1.

Columns and labels:
SMARCE1 (human) = SMARCE1 (human) (UniProt Q969G3); test: HA affinity purification of HA-DPF2 from HEK-293T nuclear extract, glycerol gradient fraction 14, mass spectrometry of co-purified proteins
BCL7C (human) [1] = target: BCL7C (human) (UniProt Q8WUZ0); test: as above
SMARCD1 (human) = SMARCD1 (human) (UniProt Q96GM5); test: as above
ACTL6A (human) [2] = target: ACTL6A (human) (UniProt O96019); test: as above
SS18 (human) = SS18 (human) (UniProt Q15532); test: as above
SS18L1 (human) [3] = target: SS18L1 (human) (UniProt O75177); test: as above
SMARCD2 (human) = SMARCD2 (human) (UniProt Q92925); test: as above
SMARCB1 (human) [4] = target: SMARCB1 (human) (UniProt Q12824); test: as above
BCL7A (human) [5] = target: BCL7A (human) (UniProt Q4VC05); test: as above
GLTSCR1L (human) = GLTSCR1L (human) (UniProt Q6AI39); test: HA affinity purification from HEK-293T nuclear extract, glycerol gradient fraction 15, mass spectrometry (co-purification in the complex)
BCL7C (human) [6] = target: BCL7C (human) (UniProt Q8WUZ0); test: as above
DPF2 (human) = DPF2 (human) (UniProt Q92785); test: as above
GLTSCR1 (human) = GLTSCR1 (human) (UniProt Q9NZM4); test: as above
ACTL6A (human) [7] = target: ACTL6A (human) (UniProt O96019); test: as above
PBRM1 (human) = PBRM1 (human) (UniProt Q86U86); test: as above
DPF3 (human) = DPF3 (human) (UniProt Q92784); test: as above
BRD9 (human) = BRD9 (human) (UniProt Q9H8M2); test: as above
PHF10 (human) = PHF10 (human) (UniProt Q8WUB8); test: as above
BRD7 (human) = BRD7 (human) (UniProt Q9NPI1); test: as above
DPF1 (human) = DPF1 (human) (UniProt Q92782); test: as above
SS18L1 (human) [8] = target: SS18L1 (human) (UniProt O75177); test: as above
SMARCB1 (human) [9] = target: SMARCB1 (human) (UniProt Q12824); test: as above
BCL7A (human) [10] = target: BCL7A (human) (UniProt Q4VC05); test: as above
[11] = target: DPF1 (entry E9PDV3) (human); test: HA affinity purification of HA-SMARCD1 mSWI/SNF complexes from HEK-293T nuclear extract, glycerol gradient fraction 15, mass spectrometry; co-purification in the complex, not necessarily direct contact
[12] = target: SMARCA4 (entry Q9HBD4) (human); test: as above
[13] = target: DPF2 (Double PHD Fingers 2) (human) (UniProt Q92785); test: colloidal blue stain and fluorometric analysis of DPF2-purified complexes

Chain of SS18L1 (human) (O75177 whole entry): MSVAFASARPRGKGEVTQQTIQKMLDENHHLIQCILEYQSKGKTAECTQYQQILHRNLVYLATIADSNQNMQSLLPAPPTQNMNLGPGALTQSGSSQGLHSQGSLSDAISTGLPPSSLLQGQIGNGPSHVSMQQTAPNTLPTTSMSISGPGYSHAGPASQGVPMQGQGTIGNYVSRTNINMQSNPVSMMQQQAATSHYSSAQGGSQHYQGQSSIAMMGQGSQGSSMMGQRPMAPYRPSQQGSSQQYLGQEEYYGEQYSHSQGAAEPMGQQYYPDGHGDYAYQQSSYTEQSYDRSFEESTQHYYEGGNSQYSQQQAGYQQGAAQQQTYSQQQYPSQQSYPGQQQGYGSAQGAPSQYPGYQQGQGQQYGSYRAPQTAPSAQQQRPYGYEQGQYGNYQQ
Chain of SMARCB1 (human) (Q12824 whole entry): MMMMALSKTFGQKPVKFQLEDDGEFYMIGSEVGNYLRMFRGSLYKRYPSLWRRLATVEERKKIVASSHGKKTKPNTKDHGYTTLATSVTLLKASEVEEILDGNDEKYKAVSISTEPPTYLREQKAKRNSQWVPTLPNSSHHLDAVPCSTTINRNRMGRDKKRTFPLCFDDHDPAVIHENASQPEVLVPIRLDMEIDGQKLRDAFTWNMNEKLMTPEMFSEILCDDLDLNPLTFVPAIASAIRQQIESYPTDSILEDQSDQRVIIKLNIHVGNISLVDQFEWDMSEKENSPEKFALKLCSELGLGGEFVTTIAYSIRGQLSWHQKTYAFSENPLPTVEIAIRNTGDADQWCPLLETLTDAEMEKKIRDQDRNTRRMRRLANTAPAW
Chain of BCL7A (human) (Q4VC05 whole entry): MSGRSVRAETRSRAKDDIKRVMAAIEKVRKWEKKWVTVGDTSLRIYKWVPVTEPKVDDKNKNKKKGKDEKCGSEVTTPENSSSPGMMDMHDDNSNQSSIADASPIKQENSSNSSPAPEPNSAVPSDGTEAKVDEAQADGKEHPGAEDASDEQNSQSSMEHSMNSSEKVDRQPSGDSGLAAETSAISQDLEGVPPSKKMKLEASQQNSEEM
Chain of ACTL6A (human) (O96019 2-429 limits assumed): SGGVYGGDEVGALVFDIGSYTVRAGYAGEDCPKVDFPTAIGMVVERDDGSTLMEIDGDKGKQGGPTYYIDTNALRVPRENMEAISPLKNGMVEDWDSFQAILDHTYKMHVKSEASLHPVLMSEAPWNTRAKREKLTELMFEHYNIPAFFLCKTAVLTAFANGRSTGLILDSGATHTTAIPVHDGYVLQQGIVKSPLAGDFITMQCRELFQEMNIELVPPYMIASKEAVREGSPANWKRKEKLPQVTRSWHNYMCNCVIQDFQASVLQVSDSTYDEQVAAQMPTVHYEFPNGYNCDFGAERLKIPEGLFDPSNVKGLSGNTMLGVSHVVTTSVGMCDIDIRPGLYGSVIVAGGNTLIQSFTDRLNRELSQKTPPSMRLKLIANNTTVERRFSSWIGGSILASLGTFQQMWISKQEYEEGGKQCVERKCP
Chain of GLTSCR1L (human) (Q6AI39 whole entry): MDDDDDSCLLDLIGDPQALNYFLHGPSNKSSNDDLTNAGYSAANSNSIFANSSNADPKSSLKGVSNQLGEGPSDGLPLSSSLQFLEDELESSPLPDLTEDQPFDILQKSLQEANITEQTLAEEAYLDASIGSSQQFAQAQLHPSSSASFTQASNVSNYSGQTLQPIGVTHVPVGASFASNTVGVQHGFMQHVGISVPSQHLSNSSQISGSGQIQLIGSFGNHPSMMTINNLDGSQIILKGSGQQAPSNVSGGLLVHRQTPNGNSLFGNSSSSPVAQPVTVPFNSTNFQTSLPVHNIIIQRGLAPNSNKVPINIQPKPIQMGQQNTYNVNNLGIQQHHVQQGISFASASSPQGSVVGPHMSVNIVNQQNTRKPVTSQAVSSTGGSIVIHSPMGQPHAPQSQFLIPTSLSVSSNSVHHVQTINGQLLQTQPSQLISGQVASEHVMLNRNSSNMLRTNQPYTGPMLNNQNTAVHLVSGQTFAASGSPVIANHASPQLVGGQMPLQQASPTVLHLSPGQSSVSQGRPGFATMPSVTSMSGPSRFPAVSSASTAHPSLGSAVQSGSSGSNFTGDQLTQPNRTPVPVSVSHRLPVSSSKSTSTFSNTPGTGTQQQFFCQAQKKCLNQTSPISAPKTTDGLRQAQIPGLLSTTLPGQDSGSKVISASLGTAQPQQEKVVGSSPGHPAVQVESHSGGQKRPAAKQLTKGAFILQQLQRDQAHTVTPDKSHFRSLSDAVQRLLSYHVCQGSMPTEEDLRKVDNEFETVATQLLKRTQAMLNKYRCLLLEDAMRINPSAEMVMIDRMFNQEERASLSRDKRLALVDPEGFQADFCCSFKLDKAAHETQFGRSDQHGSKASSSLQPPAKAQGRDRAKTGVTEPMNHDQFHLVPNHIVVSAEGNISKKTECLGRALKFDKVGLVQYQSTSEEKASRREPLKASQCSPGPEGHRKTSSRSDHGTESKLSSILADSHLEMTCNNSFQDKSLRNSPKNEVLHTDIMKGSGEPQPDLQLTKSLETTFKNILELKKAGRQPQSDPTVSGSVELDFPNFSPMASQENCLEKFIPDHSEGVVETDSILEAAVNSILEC
Chain of BRD7 (human) (Q9NPI1 whole entry): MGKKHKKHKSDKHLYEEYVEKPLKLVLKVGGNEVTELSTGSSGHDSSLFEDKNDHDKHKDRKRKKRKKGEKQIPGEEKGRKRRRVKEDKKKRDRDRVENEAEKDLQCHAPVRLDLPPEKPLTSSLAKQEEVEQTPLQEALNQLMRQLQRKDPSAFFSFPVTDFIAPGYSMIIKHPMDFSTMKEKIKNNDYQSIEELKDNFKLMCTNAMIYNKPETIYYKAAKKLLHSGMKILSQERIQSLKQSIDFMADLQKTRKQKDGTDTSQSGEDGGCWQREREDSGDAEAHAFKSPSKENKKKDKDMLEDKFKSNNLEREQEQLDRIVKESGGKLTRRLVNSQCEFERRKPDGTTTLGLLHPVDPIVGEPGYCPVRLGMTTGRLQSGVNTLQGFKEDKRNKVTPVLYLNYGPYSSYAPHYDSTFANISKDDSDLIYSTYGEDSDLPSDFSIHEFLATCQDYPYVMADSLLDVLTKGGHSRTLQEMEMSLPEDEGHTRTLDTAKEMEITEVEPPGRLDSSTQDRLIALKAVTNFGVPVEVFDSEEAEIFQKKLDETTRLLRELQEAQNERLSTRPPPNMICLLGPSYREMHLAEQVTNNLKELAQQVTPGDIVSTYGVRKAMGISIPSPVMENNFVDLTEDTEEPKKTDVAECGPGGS
Chain of PBRM1 (human) (Q86U86 whole entry): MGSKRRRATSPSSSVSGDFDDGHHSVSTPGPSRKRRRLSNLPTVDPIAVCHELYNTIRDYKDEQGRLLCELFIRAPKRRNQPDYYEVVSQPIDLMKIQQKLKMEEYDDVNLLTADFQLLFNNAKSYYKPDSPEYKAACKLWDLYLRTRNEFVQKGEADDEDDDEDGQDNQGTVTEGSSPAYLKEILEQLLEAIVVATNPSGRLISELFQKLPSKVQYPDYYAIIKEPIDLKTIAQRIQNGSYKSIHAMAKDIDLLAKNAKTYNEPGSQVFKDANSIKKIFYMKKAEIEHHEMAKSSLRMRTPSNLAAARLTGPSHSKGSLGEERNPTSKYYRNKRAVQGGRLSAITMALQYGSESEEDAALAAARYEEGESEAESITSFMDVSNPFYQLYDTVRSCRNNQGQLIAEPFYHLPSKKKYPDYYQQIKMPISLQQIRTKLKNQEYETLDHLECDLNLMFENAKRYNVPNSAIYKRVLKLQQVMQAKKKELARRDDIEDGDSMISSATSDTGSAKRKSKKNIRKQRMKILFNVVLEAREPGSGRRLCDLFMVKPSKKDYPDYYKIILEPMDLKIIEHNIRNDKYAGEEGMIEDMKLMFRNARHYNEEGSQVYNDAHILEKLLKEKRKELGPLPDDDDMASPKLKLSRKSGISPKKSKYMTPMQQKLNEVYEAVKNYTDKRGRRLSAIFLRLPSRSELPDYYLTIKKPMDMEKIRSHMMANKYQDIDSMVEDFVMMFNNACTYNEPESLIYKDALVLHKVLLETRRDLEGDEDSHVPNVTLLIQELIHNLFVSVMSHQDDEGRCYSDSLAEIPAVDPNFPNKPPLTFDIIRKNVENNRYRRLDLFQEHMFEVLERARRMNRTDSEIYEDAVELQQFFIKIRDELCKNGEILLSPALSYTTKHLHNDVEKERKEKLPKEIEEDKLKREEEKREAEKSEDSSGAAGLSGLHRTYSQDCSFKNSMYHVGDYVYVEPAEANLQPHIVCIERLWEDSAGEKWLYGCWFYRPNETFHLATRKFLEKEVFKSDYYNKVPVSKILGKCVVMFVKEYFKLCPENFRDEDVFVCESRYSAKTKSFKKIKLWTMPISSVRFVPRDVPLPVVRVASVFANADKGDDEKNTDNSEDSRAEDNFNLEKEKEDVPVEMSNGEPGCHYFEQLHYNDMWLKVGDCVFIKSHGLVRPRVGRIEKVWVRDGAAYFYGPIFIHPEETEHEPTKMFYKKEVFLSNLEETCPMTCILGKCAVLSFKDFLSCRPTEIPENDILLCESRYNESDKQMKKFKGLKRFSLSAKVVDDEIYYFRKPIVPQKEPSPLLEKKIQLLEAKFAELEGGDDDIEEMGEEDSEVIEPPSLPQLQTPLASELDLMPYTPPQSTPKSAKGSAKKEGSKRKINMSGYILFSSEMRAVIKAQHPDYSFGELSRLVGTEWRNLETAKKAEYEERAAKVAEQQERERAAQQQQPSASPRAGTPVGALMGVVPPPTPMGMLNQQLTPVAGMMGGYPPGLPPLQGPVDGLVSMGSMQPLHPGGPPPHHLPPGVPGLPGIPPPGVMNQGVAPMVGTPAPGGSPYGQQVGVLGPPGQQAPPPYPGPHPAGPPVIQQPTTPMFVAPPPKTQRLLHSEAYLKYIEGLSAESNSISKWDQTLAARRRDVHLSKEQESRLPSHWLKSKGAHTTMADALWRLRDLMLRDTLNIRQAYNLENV

HA-DPF2 (from UniProt Q92785 1-391) was tested, and the total peptides (SMARCE1 (human)) was 118 peptides, the unique peptides (SMARCE1 (human)) was 40 peptides and the total peptides (BCL7C (human) [1]) was 13 peptides. For the same substance, the unique peptides (BCL7C (human) [1]) was 7 peptides, the total peptides (SMARCD1 (human)) was 83 peptides and the unique peptides (SMARCD1 (human)) was 37 peptides. For the same substance, the total peptides (ACTL6A (human) [2]) was 61 peptides, the unique peptides (ACTL6A (human) [2]) was 23 peptides and the total peptides (SS18 (human)) was 2 peptides. It also gave a unique peptides (SS18 (human)) of 2 peptides, a total peptides (SS18L1 (human) [3]) of 3 peptides and a unique peptides (SS18L1 (human) [3]) of 2 peptides. It also gave a total peptides (SMARCD2 (human)) of 51 peptides, a unique peptides (SMARCD2 (human)) of 32 peptides and a total peptides (SMARCB1 (human) [4]) of 62 peptides. For the same substance, the unique peptides (SMARCB1 (human) [4]) was 22 peptides and the total peptides (BCL7A (human) [5]) was 36 peptides.
HA-SMARCD1 (from UniProt Q96GM5 1-515) showed a total peptides (GLTSCR1L (human)) of 1 peptides, a unique peptides (GLTSCR1L (human)) of 1 peptides and a total peptides (BCL7C (human) [6]) of 19 peptides. For the same substance, the unique peptides (BCL7C (human) [6]) was 8 peptides, the total peptides (DPF2 (human)) was 41 peptides and the unique peptides (DPF2 (human)) was 19 peptides. For the same substance, the total peptides (GLTSCR1 (human)) was 11 peptides, the unique peptides (GLTSCR1 (human)) was 10 peptides and the total peptides (ACTL6A (human) [7]) was 58 peptides. The total peptides (PBRM1 (human)) was 115 peptides, the unique peptides (PBRM1 (human)) was 79 peptides and the total peptides (DPF3 (human)) was 12 peptides. For the same substance, the unique peptides (DPF3 (human)) was 10 peptides, the total peptides (BRD9 (human)) was 8 peptides and the unique peptides (BRD9 (human)) was 8 peptides. The total peptides (PHF10 (human)) was 14 peptides, the unique peptides (PHF10 (human)) was 14 peptides and the total peptides (BRD7 (human)) was 29 peptides. For the same substance, the unique peptides (BRD7 (human)) was 19 peptides, the total peptides (DPF1 (human)) was 7 peptides and the unique peptides (DPF1 (human)) was 6 peptides. It also gave a total peptides (SS18L1 (human) [8]) of 2 peptides, a unique peptides (SS18L1 (human) [8]) of 2 peptides and a total peptides (SMARCB1 (human) [9]) of 75 peptides. It also gave a total peptides (BCL7A (human) [10]) of 33 peptides, a unique peptides (BCL7A (human) [10]) of 12 peptides and a total peptides [11] of 1. It also gave a unique peptides [11] of 1, a total peptides [12] of 1 and a unique peptides [12] of 1.
“SMARCC2 (SWI/SNF related, matrix associated, actin dependent regulator of chromatin subfamily c member 2) (from UniProt Q8TAQ2 1-1214)” gave a stoichiometry relative to DPF2 bait (copies per DPF2) [13] of 1.
